This assay deals with Adipose Triglyceride Lipase (UniProt Q96AD5).
Chain of UniProt Q96AD5 (Q96AD5 whole entry): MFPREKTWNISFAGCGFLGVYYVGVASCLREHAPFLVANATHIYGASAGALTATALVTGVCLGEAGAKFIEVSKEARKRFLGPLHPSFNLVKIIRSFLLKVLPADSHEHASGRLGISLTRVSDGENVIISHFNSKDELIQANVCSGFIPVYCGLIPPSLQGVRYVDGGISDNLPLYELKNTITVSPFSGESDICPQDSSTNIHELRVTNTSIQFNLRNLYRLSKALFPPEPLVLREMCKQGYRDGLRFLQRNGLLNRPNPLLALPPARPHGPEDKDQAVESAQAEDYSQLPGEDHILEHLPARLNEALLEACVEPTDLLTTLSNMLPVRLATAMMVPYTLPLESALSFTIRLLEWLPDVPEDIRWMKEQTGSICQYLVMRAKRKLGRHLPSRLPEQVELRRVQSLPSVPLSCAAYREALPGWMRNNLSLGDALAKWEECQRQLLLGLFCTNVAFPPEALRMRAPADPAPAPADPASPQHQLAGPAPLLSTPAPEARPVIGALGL

“MBP-G0S2 (full length G0S2 with N-terminal His6 and maltose-binding protein) (from UniProt Q61585 1-103) (natural protein)” had a triglyceride hydrolase activity of the ATGL lysate on [9,10-3H]-triolein (DPM), 2 and 10 ug MBP-G0S2, compared with HisMBP; DPM smaller at 10 ug than at 2 ug of 60%.

Source of the values: paper PMC8279337.
